2 substances from PMC3325613 can be followed below.

The term Kd denotes the constant that tells how readily two partners part at equilibrium.

The target in experiment [1] is HIV-1 capsid protein C-terminal domain, CTD (144–231) (HIV-1) (UniProt P12493). The experiment is described as follows: ITC. In general terms: Isothermal titration calorimetry measures the heat released or taken up as one component is titrated into another.
The target of experiment [2] is HIV-1 capsid protein C-terminal domain, CTD (150–231) (HIV-1) (UniProt P12493). The experiment is described as follows: ITC.

In turn, “HIV-1 capsid protein C-terminal domain, CTD (144–231) (from UniProt P12493 276-363) (domain or fragment)” yielded an equilibrium dissociation constant (Kd) in experiment [1] of 2.5 µM. Regarding “HIV-1 capsid protein C-terminal domain, CTD (150–231) (from UniProt P12493 282-363) (domain or fragment)”, the Kd in experiment [2] stood at 11 µM.
